Experimental data taken from patent US12427163B2, “Anti-VTCN1 antibodies and antibody drug conjugates” (Bluefin BioMedicine, Inc., priority 2017, dated 2025).
Changes are numbered by the printed parent chain. Values belong to the molecule of their own block, whether it stands above or below them.

Key:
[1] = system: human monocytes; experiment: Cytokine treatment of monocytes, expression of VTCN1, PD-L1, CD80 by flow cytometry; type: cell-based; settings: 24, 48, or 73 hours
Procedure: VTCN1 is expressed in monocytes and macrophages in a tumor microenviroment, the expression induced by cytokines in tumor microenviroment. VTCN1 positive macrophages inhibit T cell activation. Monocytes from healthy donors were treated with IFNγ and IL-6 to assess VTCN1 expression. Monocytes were enriched from fresh PBMC from healthy donor using a monocyte enrichment kit from Stemcell Technologies, and the purity of the obtained monocytes is greater than 95%. Monocytes were cultured in 24 well plate with different concentration of INFγ or LI-6 for 24, 48, or 73 hours, expression of VTCN1, PD-L1, and CD80 was assessed by flow cytometry. […] CD80 was expressed at low level in monocytes, and is not very responsive to cytokine treatment.

[2] = system: cynomolgus monkey VTCN1 protein; experiment: Affinity by OCTET, cynomolgus monkey VTCN1; type: binding; settings: Table 12
Procedure: (§1) The affinity of antibodies to recombinant VTCN1 was determined on an OCTET™ Red (Pall, ForteBio) instrument. After loading reagents into a 96-well plate, the OCTET™ Red with Protein A-conjugated biosensors was programmed as follows: 30 seconds for baseline #1; 45 seconds to immobilize the antibody; 30 seconds for baseline #2; 300 seconds for association of antibody to recombinant VTCN1-his; and 300 seconds for dissociation of recombinant VTCN1-his from the antibody.

[3] = target: T1, 293 cells expressing recombinant human VTCN1 (Homo sapiens, UniProt Q7Z7D3); experiment: Cell-based competition binding FACS assay against 6D9; settings: 6D9 10 μg/ml, human antibody 1 μg/ml
T1 construct: expressed in transfected cells; host or cells: 293 cells
T1 sequence (Q7Z7D3 25-282): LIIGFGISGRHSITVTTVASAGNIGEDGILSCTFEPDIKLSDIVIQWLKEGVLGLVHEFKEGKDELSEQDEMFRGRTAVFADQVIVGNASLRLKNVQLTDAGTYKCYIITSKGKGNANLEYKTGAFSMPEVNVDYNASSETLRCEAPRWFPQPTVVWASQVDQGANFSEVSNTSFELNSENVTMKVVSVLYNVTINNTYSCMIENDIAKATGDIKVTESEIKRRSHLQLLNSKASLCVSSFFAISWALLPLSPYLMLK
Procedure: To assess if these human VTCN1 antibodies bind to same or different regions of VTCN1 protein, a cell-based competition binding FACS assay was performed. […] The cells were then resuspend in FACS buffer with DAPI, and analyzed by flow cytometry.

[4] = target: T2, mouse VTCN1 protein (Mus musculus, UniProt Q7TSP5); experiment: Affinity by OCTET, mouse VTCN1; type: binding; settings: Table 12
T2 construct: His
T2 sequence (Q7TSP5 25-257): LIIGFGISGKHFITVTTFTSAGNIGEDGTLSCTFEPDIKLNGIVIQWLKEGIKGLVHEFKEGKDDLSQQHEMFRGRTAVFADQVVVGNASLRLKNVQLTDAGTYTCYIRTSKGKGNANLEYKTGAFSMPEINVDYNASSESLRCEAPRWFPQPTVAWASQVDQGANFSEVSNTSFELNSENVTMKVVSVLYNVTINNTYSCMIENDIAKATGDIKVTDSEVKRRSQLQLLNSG
Procedure: as §1, with “antibody. Table 5 lists the affinity measured for selected antibodies.” for “antibody.”

[5] = target: T3, human VTCN1 protein (Homo sapiens, UniProt Q7Z7D3); experiment: Affinity to recombinant VTCN1-his by OCTET Red (Protein A biosensors); type: binding; settings: Table 12
T3 construct: His
T3 sequence (Q7Z7D3 25-282): T1 sequence (Q7Z7D3 25-282)
Procedure: as §1, with “antibody. Table 5 lists the affinity measured for selected antibodies.” for “antibody.”

[6] = target: T4, VTCN1 IgV domain (Homo sapiens, UniProt Q7Z7D3); experiment: Flow cytometry binding to 293-VTCN1-IgV domain cells; settings: IgV domain only
T4 construct: one with an IgV domain only and one with an IgC domain only; expressed in transfected cells
T4 sequence (Q7Z7D3 35-146 limits assumed): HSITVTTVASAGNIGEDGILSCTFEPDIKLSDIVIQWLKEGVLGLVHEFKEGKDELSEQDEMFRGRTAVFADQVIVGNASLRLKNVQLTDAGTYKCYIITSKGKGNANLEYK
From the text: (§2) Two constructs were made, one with an IgV domain only and one with an IgC domain only. 293 cells were transfected with VTCN1-IgV and VTCN1-IgC constructs, and stable cell lines of 293 expressing VTCN1-IgV or VTCN1-IgC domains were made. Expression constructs also made to express VTCN1 (monkey, 99% identical to human VTCN1) and VTCN1 (mouse, 88% identical to human VTCN1), stable 293-VTCN1 (monkey), and 293-VTCN1 (mouse) cell lines made by transfecting these constructs.
(§3) Briefly, the 7C8 antibody was incubated with 293 cells, 293-VTCN1 (full length), 293-VTCN1-IgV domain, 293-VTCN1-IgC domain cell lines for 30 min at 4° C., unbound antibody was washed away, cells were then incubated with anti-human-Alexa488 conjugate, and analyzed by flow cytometry.
(§4) It was also assessed whether these antibodies bind to IgV or IgC domain of VTCN1 protein, using 293-VTCN1-IgV domain expressing cells and 293-VTCN1-IgC domain expressing cells using FACS analysis, as in Example 3.

[7] = system: SKBR3 cells; experiment: Flow cytometry binding to SKBR3 cells (hybridoma screening); design: species or system human
Procedure: (§5) Supernatant from hybridoma wells, containing VTCN1 specific antibodies, were re-tested on human breast cell lines SKBR3 and ZR-75-1. 70% confluent MX-1 cells in 10 cm dish were gently washed with 1× cold PBS once, 7 ml cold flow buffer (1×PBS, 0.5% BSA, 2 mM EDTA) was then added, the cells were gently scraped in to flow buffer using rubber cell lifter, pipet up down with 10 ml transfer pipets gently to resuspend the cells. The cells were pelleted by centrifuging them for 5 minutes at 1200 rpm at room temperature. The cell pellets were resuspended in cold flow buffer, the cells were counted and the concentration was adjusted to 1×10^6 cells per 1 mL. Using a multichannel pipette, 200 μL was collected and transferred to 96-V bottom polypropylene plates and spun at 1250 rpm for 5 min at 4° C. to pellet the cells. The cell pellets were resuspended with hybridoma supernatant diluted 2-fold with cold flow buffer and incubated at 4° C. for 30 min. After incubation, cells were washed 2× with flow buffer and then labeled with anti-rat Alexa 647 secondary antibodies for 30 min at 4° C. Unbound secondary antibodies were removed by washing the cells 2× with flow buffer. Cells were then resuspended in 200 μL of flow buffer containing PI to identify dead cells and remove from analysis. […]

[8] = target: T5, VTCN1 IgC domain (Homo sapiens, UniProt Q7Z7D3); experiment: Flow cytometry binding to 293-VTCN1-IgC domain cells; settings: IgC domain only
T5 construct: one with an IgV domain only and one with an IgC domain only; expressed in transfected cells
T5 sequence (Q7Z7D3 153-241 limits assumed): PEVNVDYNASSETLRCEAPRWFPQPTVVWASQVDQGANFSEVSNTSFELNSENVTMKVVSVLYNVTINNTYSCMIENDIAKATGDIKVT
From the text: as §2, §3, §4

[9] = target: T6, 293-VTCN1 cells (Homo sapiens, UniProt Q7Z7D3); experiment: Flow cytometry binding to 293-VTCN1 cells (full length)
T6 construct: 293-VTCN1 (full length); expressed in transfected cells; host or cells: HEK293
T6 sequence (Q7Z7D3 25-282): T1 sequence (Q7Z7D3 25-282)
Procedure: For each hybridoma, unique recombinant heavy chains were paired with unique recombinant light chains. These plasmid pairs were transfected into CHO cells in 24-well plates. Twelve days later conditioned medium from each pairing was subjected to concentration determination by OCTET™ and screened by Flow cytometric analysis for binding to 293-VTCN1 cells.
as §3
Antibody concentration was determined by OCTET™ using protein G biosensor. 0.05 μg/ml, 0.1 μg/ml, 0.5 μg/ml, 1 μg/ml, 5 μg/ml, 10 μg/ml antibodies were incubated with live cells for 30 min. on ice, unbound antibodies were washed off, and a conjugated anti-mouse 2nd antibody was added to the wells for 15 min. Cells were washed twice with flow buffer and analyzed using MACSQuant Analyzer 10 flow cytometer (Miltenyi Biotec, Bergisch Gladbach, Germany). Results from flow cytometry assays indicate that mouse anti-VTCN1 antibodies are capable of binding to 293-VTCN1 cells and MX-1 cells.

[10] = system: MX-1 cells; experiment: Flow cytometry binding to MX-1 cells; design: species or system human; settings: TNBC cell line
Procedure: as §5, with “buffer.” for “buffer. Cells were then resuspended in 200 μL of flow buffer containing PI to identify dead cells and remove from analysis.”
Antibody concentration was determined by OCTET™ using protein G biosensor. […] Cells were washed twice with flow buffer and analyzed using MACSQuant Analyzer 10 flow cytometer (Miltenyi Biotec, Bergisch Gladbach, Germany). […]

[11] = system: ZR-75-1 cells; experiment: Flow cytometry binding to ZR-75-1 cells; design: species or system human
Procedure: as §5

[12] = target: T7, 293-VTCN1 (mouse) (Mus musculus, UniProt Q7TSP5); experiment: Flow cytometry binding to 293-VTCN1 (mouse) cells
T7 construct: expressed in transfected cells
T7 sequence (Q7TSP5 25-257): T2 sequence (Q7TSP5 25-257)
From the text: as §2
(§6) Flow cytometry analysis was also performed with 7C8 binding to 293-VTCN1 (monkey) and 293-VTCN1 (mouse).

[13] = system: 293-VTCN1 (monkey); experiment: Flow cytometry binding to 293-VTCN1 (monkey) cells; design: species or system cynomolgus monkey
From the text: as §2, §6

B1: IFNγ: cytokine added to human monocyte cultures (protein, UniProt P01579 24-161, looked up)
Interferon gamma: QDPYVKEAENLKKYFNAGHSDVADNGTLFLGILKNWKEESDRKIMQSQIVSFYFKLFKNFKDDQSIQKSVETIKEDMNVKFFNSNKKKRDDFEKLTNYSVTDLNVQRKAIHELIQVMAELSPAAKTGKRKRSQMLFRG
VTCN1 and PD-L1 expression in monocytes [1]: VTCN1 and PD-L1 expression was induced

B4: 14D6_60B5: fully human VTCN1 antibody; VH SEQ ID NO: 278, VL SEQ ID NO: 281 (antibody, V domains shown)
VH: QVQLVHSGAEVKRPGSSVKVSCKASGGTFSSYAISWVRQAPGQGLEWMGGIIPIFGIANYAQKFQGRVTIIADKSTRTAYMELSSLRSEDTAVYYCARGGPYFDYWGQGILVTVSS
VL: EIVMTQSPATLSVSPGERATLSCRASQSVSSNLAWYQQKPGQAPRLLIYGASTRATGIPARFSGSGSGTEFTLTISSLQSEDFAVYYCQQYNKWPFTFGPGTKVDIK
cynomolgus monkey k(off) [2]: 6.91E−04
cynomolgus monkey k(on) [2]: 1.32E+05
competition with 6D9 for binding to VTCN1 [3]: do not compete with 6D9
mouse k(off) [4]: 6.47E−03
mouse k(on) [4]: 1.15E+05
Human K(off) [5]: 6.29E−04
Human k(on) [5]: 1.32E+05

B5: 16H12_60B4: fully human VTCN1 antibody; VH SEQ ID NO: 283, VL SEQ ID NO: 286 (antibody, V domains shown)
VH: B4 VH with L4V, H6Q, R13K, G27D, S31N, A58T, A97S
VL: B4 VL with N92K
cynomolgus monkey k(off) [2]: 2.40E−04
cynomolgus monkey k(on) [2]: 2.45E+05
competition with 6D9 for binding to VTCN1 [3]: do not compete with 6D9
mouse k(off) [4]: 3.76E−03
mouse k(on) [4]: 1.37E+05
Human K(off) [5]: 1.95E−04
Human k(on) [5]: 2.62E+05

B6: 7C8: fully human VTCN1 antibody; VH SEQ ID NO: 212, VL SEQ ID NO: 216 (antibody, V domains shown)
VH: QVQLQESGPGLVKPSETLSLTCAVSGYSISSGYYWGWIRQPPGKGLEWIGSIYHSGTTYYNPSLKSRVTISVDTSKNQFSLKLNSVTAADTAVYYCATYSSGWYFYFDYWGQGTLVTVSS
VL: DIQLTQSPSFLSASVGDRVTITCRASQGISSYLAWYQQKPGKAPKLLIYVASTLQSGVPSRFSGSGSGTEFTLTISSLQPEDFATYYCQQLNSYPITFGQGTRLEIK
binding to IgV domain of VTCN1 [6]: does not bind
binding to SKBR3 cells [7]: binds
binding to IgC domain of VTCN1 [8]: does not bind
binding to 293-VTCN1 cells (full length VTCN1) [9]: binds to full length VTCN1
binding to MX-1 cells [10]: binds
binding to ZR-75-1 cells [11]: binds
cross reactivity with mouse VTCN1 [12]: cross reacts
cross reactivity with monkey VTCN1 [13]: cross reacts

The next lines start with results.

competition with 6D9 for binding to VTCN1 [3]: do not compete with 6D9
mouse k(off) [4]: 8.11E−03
mouse k(on) [4]: 2.15E+05
Human K(off) [5]: 3.54E−04
Human k(on) [5]: 1.61E+05
B2: 12B5_44B1: fully human VTCN1 antibody; VH SEQ ID NO: 264, VL SEQ ID NO: 268 (antibody, V domains shown)
VH: QVQLVQSGAEVKKPGSSMKVSCKASGDTFSSYAISWVRQAPGQGLEWMAGIIPVFGTAHNAQKFQGRVTITADKSTSTAYMELSSLRSEDTAVYYCTRGGPYFDYWGQGTLVTVSS
VL: B4 VL with T20A, A51V, A60D, S63N, A84G, V85A, N92K, T97I, V104L, D105E
cynomolgus monkey k(off) [2]: 3.74E−04
cynomolgus monkey k(on) [2]: 1.80E+05

competition with 6D9 for binding to VTCN1 [3]: compete with 6D9
mouse k(off) [4]: 4.01E−03
mouse k(on) [4]: 9.07E+04
Human K(off) [5]: 5.81E−03
Human k(on) [5]: 1.19E+05
B3: 4C7_63A1: fully human VTCN1 antibody; VH SEQ ID NO: 248, VL SEQ ID NO: 252 (antibody, V domains shown)
VH: QVQLQESGPGLVKPSGTLSLTCAVSGGSISSSNWWSWVRQPPGKGLEAIGEIYHSGNTNYNPSLKSRVTISVDKSKNQFSLKLSSVTAADTAIYYCARDGYSSGWYWGYFDYWGQGTLVTVSS
VL: B4 VL with S30N, R45W, K93H, F96Y, P100Q, V104L, D105E
cynomolgus monkey k(off) [2]: 5.80E−03
cynomolgus monkey k(on) [2]: 1.23E+05
